Reference: patent CN116789836A (ZHEJIANG SHIMAI PHARMACEUTICAL CO LTD, dated 2023)

T1: 人DLL3蛋白(His标签) (human, UniProt Q9NYJ7 27-479)
T1 construct: Bought protein (ACRO); also called 重组人DLL3; human DLL3 protein (His tag); not shown: His tag
T1 sequence (looked up): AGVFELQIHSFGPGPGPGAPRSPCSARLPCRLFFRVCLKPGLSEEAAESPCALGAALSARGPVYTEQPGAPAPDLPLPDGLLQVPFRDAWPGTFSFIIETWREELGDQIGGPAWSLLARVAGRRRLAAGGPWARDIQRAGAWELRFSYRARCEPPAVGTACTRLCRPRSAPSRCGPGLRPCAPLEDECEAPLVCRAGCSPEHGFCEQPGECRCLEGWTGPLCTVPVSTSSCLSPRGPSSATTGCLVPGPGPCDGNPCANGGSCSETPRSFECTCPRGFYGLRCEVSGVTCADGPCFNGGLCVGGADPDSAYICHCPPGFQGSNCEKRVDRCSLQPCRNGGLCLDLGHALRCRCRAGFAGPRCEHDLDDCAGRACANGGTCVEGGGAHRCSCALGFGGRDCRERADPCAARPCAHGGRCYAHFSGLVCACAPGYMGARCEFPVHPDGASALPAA

T2: 人CD3蛋白 (human)
T2 chain: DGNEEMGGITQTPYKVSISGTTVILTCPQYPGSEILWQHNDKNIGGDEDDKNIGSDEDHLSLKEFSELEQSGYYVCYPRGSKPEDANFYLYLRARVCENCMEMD

T3: 效应细胞的CD3抗原 (CD3 on Jurkat-NFAT-CD3 cells and human T cells) (human)
T3 chain: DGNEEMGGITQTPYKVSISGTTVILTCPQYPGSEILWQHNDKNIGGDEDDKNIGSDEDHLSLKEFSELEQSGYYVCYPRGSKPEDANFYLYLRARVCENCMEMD

T4: 细胞表面表达的DLL3 (H82 and LS174T-DLL3 cells) (human, UniProt Q9NYJ7 27-618)
T4 sequence (looked up): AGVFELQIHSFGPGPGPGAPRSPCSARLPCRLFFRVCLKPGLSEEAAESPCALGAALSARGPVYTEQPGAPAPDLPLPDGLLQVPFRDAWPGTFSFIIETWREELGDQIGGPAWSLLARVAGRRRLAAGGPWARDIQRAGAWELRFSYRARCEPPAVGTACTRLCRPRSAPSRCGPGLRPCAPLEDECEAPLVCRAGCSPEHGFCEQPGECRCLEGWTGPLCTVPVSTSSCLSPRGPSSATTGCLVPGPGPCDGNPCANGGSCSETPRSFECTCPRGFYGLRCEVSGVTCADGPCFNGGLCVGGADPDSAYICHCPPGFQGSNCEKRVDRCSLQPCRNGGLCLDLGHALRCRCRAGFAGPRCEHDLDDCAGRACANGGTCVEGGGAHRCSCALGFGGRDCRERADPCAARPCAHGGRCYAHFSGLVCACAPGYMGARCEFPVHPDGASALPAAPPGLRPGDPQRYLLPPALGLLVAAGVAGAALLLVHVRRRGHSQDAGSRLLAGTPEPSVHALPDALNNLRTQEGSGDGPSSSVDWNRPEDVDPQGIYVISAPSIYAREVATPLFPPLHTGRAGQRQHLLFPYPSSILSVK


Legend:
人DLL3蛋白(His标签) [1] = molecular target: T1, 人DLL3蛋白(His标签); experiment: ELISA, coated human DLL3 protein
人CD3蛋白 = molecular target: T2, 人CD3蛋白; experiment: ELISA, coated human CD3 protein
[2] = molecular target: T3, 效应细胞的CD3抗原 (CD3 on Jurkat-NFAT-CD3 …); experiment: cell-based or functional assay
[3] = molecular target: T4, 细胞表面表达的DLL3 (H82 and LS174T-DLL3 cells); experiment: cell-based or functional assay
人DLL3蛋白(His标签) [4] = molecular target: T1, 人DLL3蛋白(His标签); experiment: ELISA, coated human DLL3 protein 100 ng per well, anti-Fc HRP detection

| EC50 (人DLL3蛋白(His标签) [1]) | EC50 (人CD3蛋白) | T cell activation (Jurkat-NFAT-CD3 luciferase reporter) with H82 target cells, EC50 [2] | T cell activation (Jurkat-NFAT-CD3 luciferase reporter) with LS174T-DLL3 target cells, EC50 [2] | T cell activation (Jurkat-NFAT-CD3 luciferase reporter) with H82 target cells, EC50 [3] | T cell activation (Jurkat-NFAT-CD3 luciferase reporter) with LS174T-DLL3 target cells, EC50 [3] | EC50 (人DLL3蛋白(His标签) [4]) | Binder | CTL EC50 (T cell dependent cytotoxicity on LS174T-DLL3 cells, human T cells, CCK8) [2] | CTL EC50 (T cell dependent cytotoxicity on LS174T-DLL3 cells, human T cells, CCK8) [3] |
| --- | --- | --- | --- | --- | --- | --- | --- | --- | --- |
| 0.378 µg/mL | 1.45 µg/mL | ~4.02 µg/mL | ~5.47 µg/mL | ~4.02 µg/mL | ~5.47 µg/mL |  | DLL3-1G2H1L1-M6MV1-1 (bispecific antibody, human IgG1, kappa, also called DLL3×CD3 BiTE) light: QVQLVQSGAELKKPGASVKLSCKASGYSFTSYWMNWVRQAPGQGLEWMGMIHPSDSETRLNQKFKDRVTLTVDKSSSTAYMELSSLTSEDTAVYYCARWDYYDYAWFAYWGQGTLVTVSSGGGGSGGGGSGGGGSDVVMTQTPLSLPVTLGQPASISCRSSQSIVHSNGDTYLEWYLQKPGQSPQLLIYKVSNRFSGVPDRFSGSGSGTDFTLKISRVEAEDVGVYYCFQGSHVPWTFGQGTKVEIKGSGGGGSGGGGSEIVVTQSPATLSVSPGERATLSCRSSTGAVTTSNYANWVQQKPGQAPRGLIGGANKRAPGVPARFSGSLSGDEATLTISSLQSEDFAVYYCALWYSNLWVFGQGTKLEIKRTVAAPSVFIFPPSDEQLKSGTASVVCLLNNFYPREAKVQWKVDNALQSGNSQESVTEQDSKDSTYSLSSTLTLSKADYEKHKVYACEVTHQGLSSPVTKSFNRGECGGSGSCPPCPAPEAAGAPSVFLFPPKPKDTLMISRTPEVTCVVVDVSHEDPEVKFNWYVDGVEVHNAKTKPREEQYNSTYRVVSVLTVLHQDWLNGKEYKCKVSNKALGAPIEKTISKAKGQPREPQVYTLPPSRDELTKNQVSLLCLVKGFYPSDIAVEWESNGQPENNYKTTPPVLDSDGSFFLHSKLTVDKSRWQQGNVFSCSVMHEALHNHYTQKSLSLSPG heavy: EVQLVESGGGLVQPGGSLRLSCAASGFTFNTYAMNWVRQAPGKGLEWVARIRSKYNNYATYYADSVKGRFTISRDDSKNTLYLQMNSLRAEDTAVYYCARHGNFGSSYVSYFAYWGQGTTVTVSSASTKGPSVFPLAPSSKSTSGGTAALGCLVKDYFPEPVTVSWNSGALTSGVHTFPAVLQSSGLYSLSSVVTVPSSSLGTQTYICNVNHKPSNTKVDKKVEPKSCDKTHTCPPCPAPEAAGAPSVFLFPPKPKDTLMISRTPEVTCVVVDVSHEDPEVKFNWYVDGVEVHNAKTKPREEQYNSTYRVVSVLTVLHQDWLNGKEYKCKVSNKALGAPIEKTISKAKGQPREPQVYTLPPSRDELTKNQVSLLCLVKGFYPSDIAVEWESNGQPENNYKTTPPVLDSDGSFFLHSKLTVDKSRWQQGNVFSCSVMHEALHNHYTQKSLSLSPG | 0.305 µg/mL | 0.305 µg/mL |
| 0.267 µg/mL | 0.892 µg/mL | ~1.97 µg/mL | ~2.7 µg/mL | ~1.97 µg/mL | ~2.7 µg/mL |  | DLL3-1G2H2L1-M6MV1-1 (bispecific antibody, human IgG1, kappa, also called DLL3×CD3 BiTE) light: QVQLVQSGAELKRPGASVKLSCKASGYSFTSYWMNWVRQAPGQGLEWIGMIHPSDSETRLNQKFKDKATLTVDKSSSTAYMELSSLTSEDSAVYYCARWDYYDYAWFAYWGQGTLVTVSSGGGGSGGGGSGGGGSDVVMTQTPLSLPVTLGQPASISCRSSQSIVHSNGDTYLEWYLQKPGQSPQLLIYKVSNRFSGVPDRFSGSGSGTDFTLKISRVEAEDVGVYYCFQGSHVPWTFGQGTKVEIKGSGGGGSGGGGSEIVVTQSPATLSVSPGERATLSCRSSTGAVTTSNYANWVQQKPGQAPRGLIGGANKRAPGVPARFSGSLSGDEATLTISSLQSEDFAVYYCALWYSNLWVFGQGTKLEIKRTVAAPSVFIFPPSDEQLKSGTASVVCLLNNFYPREAKVQWKVDNALQSGNSQESVTEQDSKDSTYSLSSTLTLSKADYEKHKVYACEVTHQGLSSPVTKSFNRGECGGSGSCPPCPAPEAAGAPSVFLFPPKPKDTLMISRTPEVTCVVVDVSHEDPEVKFNWYVDGVEVHNAKTKPREEQYNSTYRVVSVLTVLHQDWLNGKEYKCKVSNKALGAPIEKTISKAKGQPREPQVYTLPPSRDELTKNQVSLLCLVKGFYPSDIAVEWESNGQPENNYKTTPPVLDSDGSFFLHSKLTVDKSRWQQGNVFSCSVMHEALHNHYTQKSLSLSPG heavy: EVQLVESGGGLVQPGGSLRLSCAASGFTFNTYAMNWVRQAPGKGLEWVARIRSKYNNYATYYADSVKGRFTISRDDSKNTLYLQMNSLRAEDTAVYYCARHGNFGSSYVSYFAYWGQGTTVTVSSASTKGPSVFPLAPSSKSTSGGTAALGCLVKDYFPEPVTVSWNSGALTSGVHTFPAVLQSSGLYSLSSVVTVPSSSLGTQTYICNVNHKPSNTKVDKKVEPKSCDKTHTCPPCPAPEAAGAPSVFLFPPKPKDTLMISRTPEVTCVVVDVSHEDPEVKFNWYVDGVEVHNAKTKPREEQYNSTYRVVSVLTVLHQDWLNGKEYKCKVSNKALGAPIEKTISKAKGQPREPQVYTLPPSRDELTKNQVSLLCLVKGFYPSDIAVEWESNGQPENNYKTTPPVLDSDGSFFLHSKLTVDKSRWQQGNVFSCSVMHEALHNHYTQKSLSLSPG | 0.104 µg/mL | 0.104 µg/mL |
|  |  |  |  |  |  | 0.0295 µg/mL | DLL3-1G2 mAb (antibody, human IgG1, kappa, V domains shown, Chimeric full IgG1: Fab of murine clone 1G2 fused to human IgG1 Fc; also called 抗DLL3单克隆抗体) VH: QVQLQQPGAELVRPGASVKLSCKASGYSFTSYWMNWVKQRPGQGLEWIGMIHPSDSETRLNQKFKDKATLTVDKSSSTAYMQLSSPTSEDSAVYYCARWDYYDYAWFAYWGQGTLVTVSA VL: DVLMTQTPLSLPVSLGDQASISCRSSQSIVHSNGDTYLEWYLQKPGQSPNLLIYKVSNRFSGVPDRFSGSGSGTDFTLKISRVEAEDLGVYHCFQGSHVPWTFGGGTKLEIKR |  |  |
